The results in this text go back to patent US20140235820A1, “METHODS AND COMPOSITIONS FOR MODULATING THE Wnt PATHWAY” (Genentech, Inc., priority 2010, published 2014).

For experiment [1], the target named is T1, human LRP6 construct E4 (T933-Q1253) (human, UniProt O75581 933-1253, biotinylated for biolayer interferometry).
T1 construct: range 933-1253; also called LRP6 E4
T1 sequence (looked up): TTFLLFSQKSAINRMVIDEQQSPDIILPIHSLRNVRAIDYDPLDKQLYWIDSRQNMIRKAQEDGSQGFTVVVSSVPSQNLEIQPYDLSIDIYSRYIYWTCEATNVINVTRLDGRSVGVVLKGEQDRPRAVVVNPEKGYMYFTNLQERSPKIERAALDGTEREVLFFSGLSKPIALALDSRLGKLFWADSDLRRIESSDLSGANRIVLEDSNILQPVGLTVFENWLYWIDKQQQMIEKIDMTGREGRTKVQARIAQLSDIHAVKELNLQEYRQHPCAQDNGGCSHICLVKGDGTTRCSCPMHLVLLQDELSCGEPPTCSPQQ
As to the kind of experiment: BLI, biotinylated LRP6 on streptavidin tips. Here is the method: (§1) Binding kinetics were measured by biolayer interferometry using an Octet Red instrument (ForteBio) as previously described (11). Streptavidin (SA) biosensors were loaded with biotinylated hLRP6 in 50 mMTris, pH 8, 300 mM NaCl, 5% (v/v) glycerol, and 0.05% (w/v) Triton X-100. The loaded biosensors were washed in the same buffer before carrying out association and dissociation measurements for the indicated times. The Kd of each interaction was determined using steady state-analysis through the Octet Red software v6.3. Each reported value represents an average of three or more experiments at different concentrations, with a fitted experimental curve for which the square of the correlation coefficient (R²) is above 0.96.
Purified receptors contained individual β-propeller-EGF-like units (E1, E2, or E4), two β-propellers (E1E2 or E3E4), or four β-propellers (E1E4))—as follows: […]
(BLI is a label-free optical method that tracks binding on a fibre tip over time.)

Experiment [2] deals with T2, human LRP6 construct E1E2 (amino acids A20-E631) (human, UniProt O75581 20-631, biotinylated for biolayer interferometry).
T2 construct: range 20-631; also called LRP6 E1E2
T2 sequence (looked up): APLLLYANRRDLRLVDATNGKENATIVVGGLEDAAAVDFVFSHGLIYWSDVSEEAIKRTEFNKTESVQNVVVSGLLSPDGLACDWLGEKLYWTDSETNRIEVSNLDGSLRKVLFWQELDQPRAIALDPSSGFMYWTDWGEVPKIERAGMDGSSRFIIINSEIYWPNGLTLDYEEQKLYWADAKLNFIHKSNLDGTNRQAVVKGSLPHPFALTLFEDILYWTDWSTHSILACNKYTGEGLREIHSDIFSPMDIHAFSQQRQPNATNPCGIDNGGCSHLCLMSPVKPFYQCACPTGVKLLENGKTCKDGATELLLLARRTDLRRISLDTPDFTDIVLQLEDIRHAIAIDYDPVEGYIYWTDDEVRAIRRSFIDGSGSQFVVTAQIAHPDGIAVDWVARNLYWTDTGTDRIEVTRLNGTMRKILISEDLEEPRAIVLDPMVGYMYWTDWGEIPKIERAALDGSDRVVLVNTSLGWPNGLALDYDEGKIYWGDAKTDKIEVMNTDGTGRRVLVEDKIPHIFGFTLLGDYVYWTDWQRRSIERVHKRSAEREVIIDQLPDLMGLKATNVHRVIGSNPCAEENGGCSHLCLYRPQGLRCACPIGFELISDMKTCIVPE
As to the kind of experiment: BLI (Octet Red), biotinylated LRP6 on streptavidin tips, steady state. The protocol:
as §1

Experiment [3] deals with T3, human LRP6 construct E3E4 (amino acids E631-Q1253) (human, UniProt O75581 631-1253, biotinylated for biolayer interferometry).
T3 construct: range 631-1253; also called LRP6 E3E4
T3 sequence (looked up): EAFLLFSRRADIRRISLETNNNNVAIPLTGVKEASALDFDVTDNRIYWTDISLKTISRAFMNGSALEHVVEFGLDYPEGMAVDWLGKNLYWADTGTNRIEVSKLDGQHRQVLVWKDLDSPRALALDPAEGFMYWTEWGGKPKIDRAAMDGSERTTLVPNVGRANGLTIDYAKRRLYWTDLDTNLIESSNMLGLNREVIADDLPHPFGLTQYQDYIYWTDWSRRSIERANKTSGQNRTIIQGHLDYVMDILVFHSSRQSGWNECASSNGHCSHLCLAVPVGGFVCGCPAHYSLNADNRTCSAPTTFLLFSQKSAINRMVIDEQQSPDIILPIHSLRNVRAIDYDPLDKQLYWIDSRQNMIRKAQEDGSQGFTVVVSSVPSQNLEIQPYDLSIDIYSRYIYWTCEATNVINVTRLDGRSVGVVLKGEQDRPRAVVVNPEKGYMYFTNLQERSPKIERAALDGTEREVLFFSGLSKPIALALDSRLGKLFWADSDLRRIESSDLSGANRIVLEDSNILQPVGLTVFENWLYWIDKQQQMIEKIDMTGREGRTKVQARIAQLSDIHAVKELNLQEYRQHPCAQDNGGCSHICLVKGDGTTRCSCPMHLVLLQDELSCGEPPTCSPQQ
The experiment is described as above. Here is the method: as §1

A further experiment addresses T4, LRP6 E1E2 Asn185Ser (human, UniProt O75581 20-631).
T4 construct: range 20-631; also called LRP6 E1E2 N185S (analogue of LRP5 BMD mutation Asn198Ser)
T4 sequence (looked up): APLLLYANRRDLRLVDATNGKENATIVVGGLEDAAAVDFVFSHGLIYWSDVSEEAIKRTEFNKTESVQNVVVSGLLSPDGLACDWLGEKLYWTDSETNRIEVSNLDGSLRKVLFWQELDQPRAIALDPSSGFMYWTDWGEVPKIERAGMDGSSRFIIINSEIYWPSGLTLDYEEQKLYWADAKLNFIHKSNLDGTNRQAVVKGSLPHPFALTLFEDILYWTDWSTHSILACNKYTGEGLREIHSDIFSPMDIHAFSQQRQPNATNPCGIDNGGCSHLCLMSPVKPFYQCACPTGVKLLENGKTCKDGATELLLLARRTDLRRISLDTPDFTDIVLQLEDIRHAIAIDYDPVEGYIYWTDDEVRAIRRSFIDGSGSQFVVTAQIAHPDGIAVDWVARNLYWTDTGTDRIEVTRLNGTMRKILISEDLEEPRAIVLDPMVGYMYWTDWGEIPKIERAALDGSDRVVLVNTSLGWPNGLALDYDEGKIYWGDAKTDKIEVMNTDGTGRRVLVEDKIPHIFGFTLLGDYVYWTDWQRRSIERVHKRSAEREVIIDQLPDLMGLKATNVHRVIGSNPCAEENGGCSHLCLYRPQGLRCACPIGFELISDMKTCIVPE
As to the kind of experiment: BLI steady-state affinity. The protocol:
as §1

A further experiment addresses T5, LRP6 E1E2 Arg141Met (human, UniProt O75581 20-631).
T5 construct: range 20-631; also called LRP6 E1E2 R141M
T5 sequence (looked up): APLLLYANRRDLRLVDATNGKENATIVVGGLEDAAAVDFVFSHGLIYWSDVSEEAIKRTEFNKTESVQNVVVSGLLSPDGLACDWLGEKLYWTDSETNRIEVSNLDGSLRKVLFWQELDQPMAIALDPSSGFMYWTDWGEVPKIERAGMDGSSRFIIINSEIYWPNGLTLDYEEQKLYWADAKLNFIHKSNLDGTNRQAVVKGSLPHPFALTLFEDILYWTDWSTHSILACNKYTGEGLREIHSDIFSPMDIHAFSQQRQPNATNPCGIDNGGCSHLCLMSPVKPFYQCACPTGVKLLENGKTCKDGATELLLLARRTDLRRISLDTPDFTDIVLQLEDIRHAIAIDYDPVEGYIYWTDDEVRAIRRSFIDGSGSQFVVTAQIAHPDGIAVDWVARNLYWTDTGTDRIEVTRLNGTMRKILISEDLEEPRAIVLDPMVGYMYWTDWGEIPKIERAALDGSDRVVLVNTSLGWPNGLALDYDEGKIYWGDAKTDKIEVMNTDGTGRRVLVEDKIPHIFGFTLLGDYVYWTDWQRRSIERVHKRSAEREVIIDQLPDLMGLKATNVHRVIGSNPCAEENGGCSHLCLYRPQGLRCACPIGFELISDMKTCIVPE
The experiment can be described thus: BLI steady-state affinity. Here is the method: as §1

Experiment [4] deals with T6, human LRP6 construct E1 (amino acids A20-D325) (human, UniProt O75581 20-325).
T6 construct: range 20-325; In the Fab crystal E1 arose from E1E2 degraded beyond Arg 335; residues Ala20 to Lys324 were traced; also called LRP6 E1; E1 domain
T6 sequence (looked up): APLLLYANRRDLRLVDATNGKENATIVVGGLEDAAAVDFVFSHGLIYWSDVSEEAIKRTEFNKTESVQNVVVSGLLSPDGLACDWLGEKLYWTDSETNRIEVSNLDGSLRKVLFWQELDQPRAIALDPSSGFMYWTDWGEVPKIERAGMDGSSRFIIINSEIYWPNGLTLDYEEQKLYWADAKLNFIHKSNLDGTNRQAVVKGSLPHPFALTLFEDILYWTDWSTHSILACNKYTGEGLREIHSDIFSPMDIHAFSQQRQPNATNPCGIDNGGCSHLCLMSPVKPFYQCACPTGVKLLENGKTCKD
As to the kind of experiment: synthetic peptides, competition IC50 (FIG. 17A).

B1: Dkk1 (wild type) (ligand, human, UniProt O94907 32-266, looked up)
chain: TLNSVLNSNAIKNLPPPLGGAAGHPGSAVSAAPGILYPGGNKYQTIDNYQPYPCAEDEECGTDEYCASPTRGGDAGVQICLACRKRRKRCMRHAMCCPGNYCKNGICVSSDQNHFRGEIEETITESFGNDHSTLDGYSRRTTLSSKMYHTKGQEGSVCLRSSDCASGLCCARHFWSKICKPVLKEGQVCTKHRRKGSHGLEIFQRCYCGEGLSCRIQKDHHQASNSSRLHTCQRH
notes: also called Dickkopf 1; human Dkk1
For orientation: Kd means the constant that tells how readily two partners part at equilibrium. A low value points to tighter binding. Regarding B1, the binding result in experiment [1] is listed as “no binding”. Moreover, the Kd in experiment [2] is 22 nM; in experiment [3], 51 nM. For the same molecule, the “fold loss in affinity against wild-type LRP6 E1E2” value with LRP6 E1E2 Asn185Ser is 183 fold; with LRP6 E1E2 Arg141Met, 29 fold.

For the molecule AIKN [Dkk1 peptide lacking three residues from the N-terminus], the binding result in experiment [4] is “no binding”.

For NSNA [Dkk1 peptide lacking three residues from the C-terminus], the binding result in experiment [4] was “no binding”.
